In patent US20250035612A1 (NEURIMMUNE, published 2025):
Ends that are not written are not given here. * marks the point of attachment. Biotin = O=C1N[C@H]2[C@H](CS[C@H]2CCCCC(=O)*)N1; Ahx = NCCCCCC(=O)O

Experiments:
[1] = target: T1, cyclic peptide TTR34-54cyc (cyclized via disulfide bridge between two cysteine residues within the poly-glycine stretch); assay: cell-based or functional assay
[2] = target: fluorescently labeled misfolded TTR aggregates of the monomeric F87M/L110M-TTR mutant (mis.TTR-488) (UniProt P02766 21-147); assay: cell-based or functional assay
[3] = target: T1, cyclic peptide TTR34-54cyc; assay: cell-based or functional assay; remark: listed apart in the source
[4] = target: T1, cyclic peptide TTR34-54cyc; assay: ELISA, coated peptide at 10 µg/ml, reference mis.WT-TTR
Procedure: (§1) In particular, 96-well microplates were coated for 1 hour at 37° C. with TTR34-54cyc, TTR40-49, Biotin. TTR40-449, and mis-WT-TTR (FLISA-1) and with TTR34-54cyc, Biotin. TTR34-54cyc, TTR40-49, Biotin. TTR40-449, and mis-WT-TTR (ELISA-2), respectively, wherein each target antigen has been diluted to a concentration of 10 μg/ml in PBS buffer pH 7.4. Non-specific binding sites were blocked for 1 hour at room temperature (RT) with a blocking buffer containing 2% bovine serum albumin (BSA) and 0.1% tween-20 in PBS buffer. […] Binding was determined using an anti-human IgG antibody conjugated with horseradish peroxidase (HRP), followed by measurement of HRP activity in a standard colorimetric assay (ThermoFisher Scientific Inc., Waltham, Massachusetts, USA). Data were analyzed with the Prism software from GraphPad. ECso values were estimated using non-linear regression of individual data points using log (agonist) versus response model with variable slope. Data fitting was performed with the least square regression method.

[5] = target: T2, Biotin.TTR34-54cyc (N-terminal Biotin-(Ahx): amino hexanoic acid spacer between the N-terminus and the biotin residue; cyclized via disulfide bridge between the two cysteine residues); assay: as above
T2 construct: Biotinylated form of TTR34-54cyc; also called biotinylated TTR34-54cyc
T2 sequence (peptide, as listed by the source): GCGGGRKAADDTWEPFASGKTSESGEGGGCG
Procedure: as §1

[6] = target: T1, cyclic peptide TTR34-54cyc; assay: ELISA-1, coated TTR34-54cyc at 10 µg/ml, anti-human IgG-HRP detection
Procedure: as §1

[7] = target: T1, cyclic peptide TTR34-54cyc; assay: ELISA-2, coated TTR34-54cyc at 10 µg/ml, anti-human IgG-HRP detection
Procedure: as §1

[8] = target: T3, TTR peptide TTR40-49; assay: ELISA-1 and ELISA-2, peptide coated at 10 µg/ml, anti-human IgG-HRP detection
T3 peptide: H-TWEPFASGKT-OH
Procedure: as §1

[9] = target: T4, Biotin.TTR40-49; assay: as above
T4 construct: also called Biotin; TTR40-449; biotinylated TTR peptide TTR40-49
T4 peptide: {Biotin-Ahx}-TWEPFASGKT
Procedure: as §1

[10] = target: T2, Biotin.TTR34-54cyc; assay: ELISA (ELISA-2), plate coated with Biotin.TTR34-54cyc at 10 µg/ml, antibody titrated
Procedure: as §1

T1 sequence (peptide, as listed by the source): as above

- EC50 of the FcγR1 ADCP reporter assay, first experiment (FIG. 11); plate coated with 3 µg/mL TTR34-54cyc, NI-301.37F1 RS dilutions 500-0.4 ng/ml [1]: 0.0198 µg/mL
- EC50 of the mis.TTR-488 phagocytosis dose-response in THP1 cells, 0.7x_NI-301.37F1_3 (nominal concentration; sample at 0.7x of the reference) [2]: 1.5 nM
- EC50 of the mis.TTR-488 phagocytosis dose-response in THP1 cells, 1x_NI-301.37F1_3 [2]: 1.2 nM
- EC50 of the mis.TTR-488 phagocytosis dose-response in THP1 cells, NI-301.37F1_W1 GMP DS [2]: 0.54 nM
- EC50 of the mis.TTR-488 phagocytosis dose-response in THP1 cells, NI-301.37F1_W1 non-GMP DP [2]: 0.92 nM
- EC50 (ng/mL) of the FcγR1 ADCP reporter assay, plate coated with TTR34-54cyc; reference sample (RS) 100%, run with the 50% test sample [3]: 19.8 ng/mL
- EC50 (ng/mL) of the FcγR1 ADCP reporter assay, plate coated with TTR34-54cyc; reference sample (RS) 100%, run with the 70% test sample [3]: 19.8 ng/mL
- EC50 (ng/mL) of the FcγR1 ADCP reporter assay, plate coated with TTR34-54cyc; reference sample (RS) 100%, run with the 130% test sample [3]: 17.6 ng/mL
- EC50 (ng/mL) of the FcγR1 ADCP reporter assay, plate coated with TTR34-54cyc; reference sample (RS) 100%, run with the 150% test sample [3]: 19.3 ng/mL
- EC50 (ng/mL) of the FcγR1 ADCP reporter assay, plate coated with TTR34-54cyc; test sample 50% (nominal concentration) [3]: 39 ng/mL
- EC50 (ng/mL) of the FcγR1 ADCP reporter assay, plate coated with TTR34-54cyc; test sample 70% (nominal concentration) [3]: 30.4 ng/mL
- EC50 (ng/mL) of the FcγR1 ADCP reporter assay, plate coated with TTR34-54cyc; test sample 130% (nominal concentration) [3]: 13.6 ng/mL
- EC50 (ng/mL) of the FcγR1 ADCP reporter assay, plate coated with TTR34-54cyc; test sample 150% (nominal concentration) [3]: 13.5 ng/mL
- fold stronger binding than to mis. WT-TTR [4]: ~10 fold
- fold stronger binding than to mis. WT-TTR [5]: ~10 fold
- EC50 [6]: 0.027 nM
- EC50 [7]: 0.66 nM
- binding result [8]: no binding
- binding result [9]: no binding
- EC50 (read off the curve) [10]: ~0.6 nM
B1: anti-TTR antibody NI-301.37F1 (antibody, V domains shown)
VH: QVQLQESGPGLVKPSETLSLTCSVSGGSIISRSSYWGWIRQPPGKGLEWIGGIYHSGNTYDNPSLKSRLTMSVDTSKNQFSLNLRSVTAADTAVYYCARIVPGGDAFDIWGQGTMVTVSS
VL: DIQMTQSPSSLSASVGDRVTIACRASQSVGTYLNWYQQKRGKAPKLLIFAASSLQSGVPSRFSGSGSGTDFTLTISSLQPEDFATYYCQQSYSSPPTFGQGTKVEIK
notes: detected with anti-human IgG; also called 37F1_3
